Measured values published in patent US20210292423A1 (published 2021).

Assays:
[1] = target: T1, human CD3 (TCR complex) on primary human T cells or Jurkat cells (human, UniProt P07766 23-207); assay: flow cytometry, primary human T cells
T1 construct: on the cells it stands in the whole TCR/CD3 complex; also called Jurkat E6-1 (expressing human TCR)
Method: The binding capacity of the CD3-Fabs was determined by flow cytometry. Primary human T cells were used as target cells. Therefore, peripheral blood mononuclear cells (PBMCs) were isolated from 200 ml peripheral blood of healthy donors treated with EDTA by Ficoll density centrifugation. 15 ml Histopaque (Sigma-Aldrich) was preloaded on a 50 ml Leucosep-Tube (Greiner bio-one). Blood was diluted with autoMACS Rinsing Buffer+1% BSA (Miltenyi Biotec) and loaded on the membrane of a total of ten prepared tubes. Tubes were centrifuged without brake for 10 min at 1000 xg. PBMCs were collected and washed with autoMACS Rinsing Buffer+1% BSA three times. Finally, PBMCs were resuspended in autoMACS Running Buffer (Miltenyi Biotec) for isolation of T lymphocytes by autoMACSpro technology using the Pan T Cell isolation Kit (Miltenyi Biotec) according to manufacturer's instructions. Purity of separated T cells was analyzed by MACSQuant flow cytometry using the human 7-Color Immunophenotyping Kit (Miltenyi Biotec). Isolated T cells were resuspended in Stain Buffer with FBS (BD Pharmingen) and 1E5 cells in 100 μl per well were seeded in 96-well U-bottom suspension culture plates (Greiner bio-one). Fab antibodies were diluted 1:3 in serial in PBS (Invitrogen) and 5 μl each were added to the cells at a final maximum concentration of 30000 ng/ml. The assay was incubated for 45 min at 4° C. Cells were washed twice with Stain Buffer with FBS and 1 μg secondary antibody Goat F(ab′)2 Anti-Human kappa-FITC (Beckman Coulter, #732621) per well was added in 100 μl Stain Buffer with FBS per well. The assay was incubated for 20 min at 4° C. and washed twice afterwards. Cells were resuspended in 150 μl Stain Buffer with FBS per well and were measured using the MACSQuant (Miltenyi Biotec) or LSRII (BD) flow cytometer. Further data analyses were performed using the FlowJo software (Tree Star, Inc.). Read out was percentage of cells positive for antibody binding. Cells treated only with the secondary but no primary antibody were used to set the gates. EC50 Curves were calculated by XLfit (Algorithm 205), EC50 values were calculated as inflection point of the slope (data are shown in table 6).

[2] = target: T2, human CD3ε and CD3δ co-expressed on HEK293F cells (human, UniProt P07766 23-207; P04234 22-171); assay: flow cytometry, transfected HEK293F
T2 construct: also called huCD3ε/δ (transfected cells); huCD3e + huCD3d
Method: (§1) To analyze binding of antibodies to human CD3ε and human CD3δ expressed on the surface of cells, HEK293F cells were transfected with both constructs either alone or in co-transfection and signals were measured by flow cytometry. For transfection procedure FuGENE HD Transfection Reagent (Promega, #E2311) was used according to manufacturer's protocol.
(§2) Antibodies for staining were seeded at 1 μg in 50 μl per well Stain Buffer with FBS (BD Pharmingen) in 96-well U-bottom suspension culture plates (Greiner bio-one). Harvested transfected cells were resuspended in Stain Buffer with FBS and were added at 50 μl per well to the antibodies. Cells were incubated at 4° C. in the dark for 30 min and were washed twice. 0.5 μg secondary antibody Goat F(ab′)2 Anti-Human IgG-FITC (Beckman Coulter, #732598) or Goat F(ab′)2 Anti-Human kappa-PE (Southern Biotech, #206209), respectively, in combination with 0.5 μg 7-AAD per well was added in 100 μl Stain Buffer with FBS. Cells were incubated at 4° C. in the dark for 15 min and were washed twice. For measurement, cells were resuspended in 200 μl Stain Buffer with FBS. Cells were measured using the MACSQuant (Miltenyi Biotec) or LSRII (BD) flow cytometer, respectively. Further data analyses were performed using the FlowJo software (Tree Star, Inc.).

[3] = target: T3, human CD3ε expressed alone on HEK293F cells (human, UniProt P07766 23-207); assay: flow cytometry, transfected HEK293F
T3 construct: also called huCD3ε
Method: as §1, §2

[4] = target: recombinant huCD3ε/γ protein with Fc-tag (PB01225) (human, UniProt P07766 23-126; P09693 23-116); assay: SPR, CD3-Fc captured, Fab 100 nM
Method: (§3) Binding was tested by SPR using a BIAcore3000 instrument run with HBS-EP buffer. Recombinant huCD3 proteins (ε/δ (PB01226), ε/γ (PB01225)) were captured at 10 μl/min via Fc-tag by anti-human Fc capture antibody MAB1302 (Millipore) immobilized on a CM5 sensor chip. Anti-CD3 Fabs were used as analytes at 100 nM with association and dissociation times of 240 sec and 300 sec, respectively at 30 μl/min. After each cycle the surfaces were regenerated by a 2 min pulse of 10 mM glycine buffer pH2.5.

[5] = target: T4, human CD3ε/δ-Fc fusion protein (soluble recombinant CD3ε/δ complex) (human, UniProt P04234 22-105); assay: SPR, CD3-Fc captured, Fab 100 nM
T4 construct: also called huCD3ε/δ; huCD3; not shown: hinge, CH2, CH3 of human IgG with tag
T4 sequence (chain, as listed by the source mutant, chain 1 of 2): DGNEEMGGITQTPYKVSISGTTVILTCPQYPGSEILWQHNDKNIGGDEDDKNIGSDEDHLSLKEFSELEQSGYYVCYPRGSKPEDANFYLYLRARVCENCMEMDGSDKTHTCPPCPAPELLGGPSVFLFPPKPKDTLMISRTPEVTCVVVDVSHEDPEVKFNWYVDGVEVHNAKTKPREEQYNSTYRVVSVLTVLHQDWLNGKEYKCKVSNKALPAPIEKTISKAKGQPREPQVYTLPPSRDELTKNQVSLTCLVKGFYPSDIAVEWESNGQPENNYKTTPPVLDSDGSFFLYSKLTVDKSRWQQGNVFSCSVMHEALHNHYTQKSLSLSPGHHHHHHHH
T4 sequence (P04234 22-105, stated change not applied, chain 2 of 2): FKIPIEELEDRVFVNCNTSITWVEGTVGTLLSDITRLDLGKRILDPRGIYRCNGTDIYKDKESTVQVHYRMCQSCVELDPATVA
Method: as §3

[6] = target: T4, human CD3ε/δ-Fc fusion protein (soluble …); assay: SPR Biacore, CD3εδ-Fc captured, Fab analyte
Method: Binding affinities of anti-CD3 binding Fabs or CODV-Fabs were measured by surface plasmon resonance (SPR) using a Biacore3000 instrument (GE Healthcare). Assay buffer was HBS-EP (BR-1001-88, GE Healthcare). Capture of CD3ε/δ-Fc fusion proteins was achieved using the human antibody capture kit (GE Healthcare). […] The CD3εδ-Fc fusions proteins were captured at 10 μl/min to approx. 70 RU to yield Rmax values of 30 RU. Binding kinetics with the anti-CD3 Fabs or CODV-Fabs was measured at 30 μl/min for 240 sec. and 600 sec. for association and dissociation phase, respectively. Twofold dilutions of Fabs from 3 to 400 nM in assay buffer were used. All Fab concentrations were run in duplicate together with duplicate buffer blanks for double referencing. Regeneration of the capture surface was performed with a 1 min injection of 3M MgCl2 solution at 30 μl/min. For data analysis the BIAevaluation software v.4.1 (GE Healthcare) was used. Data were fit globally using a 1:1 Langmuir model with mass transfer.

[7] = target: T5, human CD3δ expressed alone on HEK293F cells (human, UniProt P04234 22-171); assay: flow cytometry, HEK293F transfected with huCD3δ
T5 construct: entry includes the signal peptide; also called huCD3δ
T5 sequence (P04234 22-171 limits assumed, stated change not applied): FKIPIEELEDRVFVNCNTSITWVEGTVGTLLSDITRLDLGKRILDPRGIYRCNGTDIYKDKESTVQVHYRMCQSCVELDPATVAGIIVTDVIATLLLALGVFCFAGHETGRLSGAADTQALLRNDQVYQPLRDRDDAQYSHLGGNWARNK
Method: as §1
Cells were incubated on a shaker at 37° C. and 5% CO2. At day one to three after transfection cells were harvested and binding of antibodies was analyzed by flow cytometry.
as §2

Binder | EC50 [1] | % antibody positive transfected cells [2] | % antibody positive transfected cells [3] | RU of Fab binding at 100 nM [4] | RU of Fab binding at 100 nM [5] | Kd [6] | koff [6] | kon [6] | binding result [7]
18G9-H11 Fab (Fab, V domains shown) VH: EVQLVETGGSLVQPGKSLKLTCATSGFTFSNAWIQWVRQSPEKQLEWVAQIKAKSNNYATYYAESVKGRFTISRDDSKSSVYLQMNSLKEEDTALYYCTWRHYYSSHTMDAWGQGTLVTVSS VL: DVVMTQTPVSLSVSLGGQVSISCRSSQSLVHNNGNTYLSWYLQKPGQSPQLLIYKVSNRFSGISDRFSGSGSGTDFTLKISRVAPTDLGVYYCGQGSQYPFTFGAGTKLELK | 1.7 nM | 97% | 95% | 3 RU | 10 RU | 4.4 nM | 0.0011 s⁻¹ | 250000 M⁻¹ s⁻¹ | no binding (tested: <20% of binding of huCD3e + huCD3d)
1E6-C9 Fab (Fab, V domains shown, also called 1E6-B8; 1E6-B8/B9-C9-Fab) VH: EVQLVETGGSLVQPGKSLKLTCATSGFTFSYAWMHWVRQSPDKQLQWVAQIKAKSNNYATYYAESVEGRFTISRDDSKSSVYLQMNSLKEEDTAIYYCRGVYYGLLGLDAWGQGTSVTVSS VL: DVVMTQTPVSLSVRLGGQVSISCRSSQSLVHNNGNTYLSWFLQKPGQSPQLLIYKVSNRFSGISDRFSGSASGTDFTLKISRVEPDDLGVYYCGQGTHYPFTFGSGTKLEIK | 18.7 nM | 91.7% | 87.7% | 7 RU | 10 RU | 41 nM | 0.0039 s⁻¹ | 93000 M⁻¹ s⁻¹ | no binding (tested: <20% of binding of huCD3e + huCD3d)
13H2-C2 Fab (Fab, V domains shown, also called 13H2-C3) VH: EEELVETGGSLVQPGKSLKLTCATSGFTFSNAWMHWVRQSPDKQLEWVAQIKAKSNNYATYYAESVKGRFTISRDDSKSSVYLQMNNLKEEDTAIYYCRYVHYGLAPMDAWGQGTSVTVSS VL: DVVMTQTPVSLSVSLGGQVSISCRSSQSLVHNNGNTYLSWYLQKAGQSPQLLIYKVSNRFSGISDRFSGSGSGTDFILKISRVEPDDLGVFYCGQGTQYPFTFGAGTKLELK | 14.3 nM | 93% | 93.3% | 6 RU | 9 RU | 29 nM | 0.0049 s⁻¹ | 170000 M⁻¹ s⁻¹ | no binding (tested: <20% of binding of huCD3e + huCD3d)
20E5-F10 Fab (Fab, V domains shown, also called 20E5-F10-huFab) VH: EVQLVETGENLVQPGKSLRLTCATSGFSFSNAWMHWIRQSPEKQLEWVAQIKDKSNNYATYYAESVNGRFTISRDDSKSSIYLHMDNLKEEDSAIYYCRYVHYGVRFFYTMDVWGQGTSVTVSS VL: DVVMTQTPVSLSVSLGDQVSISCRPSQSLVHNNGNTYLSWYLQKPGQSPHPLIYKVSNRFSGISDRFSGSGSGTDFTLKISRVEPDDLGVYYCGQGTQYPFTFGSGTKLEIK | 8.2 nM | 95.3% | 96.7% | 8 RU | 11 RU | 4.3 nM | 0.00043 s⁻¹ | 99000 M⁻¹ s⁻¹ | no binding (tested: <20% of binding of huCD3e + huCD3d)
12G3-E8 Fab (Fab, V domains shown) VH: EVRVVETGGSLVQPGKSLKLTCATSGFTFSLAWMHWVRQSPEKKLEWVAQIKDKANNYATYYAESVKGRFTISRDDSKRSVYLQMNRLKEEDTAIYYCRGVYYGFSMTPFDYWGQGVMVTVSS VL: DVAMTQTPVSLSVSLGGQVSISCRSSQSLVHNNGNTYLSWYLQKPGQSPQVLIYKVSNRFSGISDRFSGSGSGADFTLKISRVEPDDLGVYYCGQGTQYPFTFGAGTKLELK | 4.4 nM | 96.7% | 96.3% | 7 RU | 10 RU | 9.3 nM | 0.0011 s⁻¹ | 110000 M⁻¹ s⁻¹ | no binding (tested: <20% of binding of huCD3e + huCD3d)
11F9-F8 Fab (Fab, V domains shown, also called 11F9-F8-huFab) VH: EVQLVETGGTLVQPGKSLKLTCATSGFTFSNAWMHWVRQSPEKQLEWVAQIKAKSNNYATYYAESVKGRFTISRDDSKTSVYLQLNSLREEDTAIYYCRGTQYGYNPFDYWGQGVMVTVSS VL: DVVLTQTPVSLSVSLGGQVSISCRSSQSLVHNNGNTYLSWSLQKPGQSPQVLIYKVSNRFSGISNRFSGSGSGTDFTLKISRVEPDDLGVYYCGQGAHYPFTFGSGTKLEIK | 11.6 nM | 96% | 97% | 7 RU | 10 RU | 5.2 nM | 0.0004 s⁻¹ | 77000 M⁻¹ s⁻¹ | no binding (tested: <20% of binding of huCD3e + huCD3d)
10E6-G6 Fab (Fab, V domains shown) VH: EVQLVETGGGLVQSGKSLKLTCATSGFTVTNAWMHWVRQSPEKQLEWVAQIKAKSNNYETYYAESVKGRFTISRDDSKSSVYLQMNSLKEEDTAIYYCRGTQYGYNPFDYWGQGVMVTVSS VL: DVVMTQSPVSLSVSLGGQVSISCRSSQSLVHNNGYTYLSWYLQKPGQSPQVFIYKVSNRFSGISDRFSGSGSGTDFTLKISRIEPDDLGVYYCGQGTHYPFTFGSGTKLEIK | 4.7 nM | 93.3% | 96.3% | 8 RU | 11 RU | 14 nM | 0.002 s⁻¹ | 140000 M⁻¹ s⁻¹ | no binding (tested: <20% of binding of huCD3e + huCD3d)
